Assay results published in PMC6795539 (Nature medicine, 2019).
Substitutions are numbered along the chain they refer to.

B1: NZM-mFc, variant of NZM in which the human Fc was replaced with the murine counterpart (antibody, V domains shown)
VH: QVQLVQSGAEVKKPGASVKVSCKASGFNIKDTYIHWVRQAPGQRLEWMGRIDPANGYTKYDPKFQGRVTITADTSASTAYMELSSLRSEDTAVYYCAREGYYGNYGVYAMDYWGQGTLVTVSS
VL: DIQMTQSPSSLSASVGDRVTITCKTSQDINKYMAWYQQTPGKAPRLLIHYTSALQPGIPSRFSGSGSGRDYTFTISSLQPEDIATYYCLQYDNLWTFGQGTKVEIK
B2: Natalizumab (NZM), humanized monoclonal IgG4 antibody to α4 integrins (antibody, V domains shown)
VH: B1 VH
VL: B1 VL
B3: NZM variant var1 (light chain CDR2 modified), full human IgG4 (antibody, V domains shown)
VH: B1 VH
VL: B1 VL with S52K, A53G, L54N
B4: NZM variant var3 (light chain CDR2 modified), full human IgG4 (antibody, V domains shown)
VH: B1 VH
VL: B1 VL with S52K, A53S, L54N
B5: NZM variant var2 (light chain CDR2 modified), full human IgG4 (antibody, V domains shown)
VH: B1 VH
VL: B1 VL with S52K, A53G, L54N, P56S
B6: NZM variant var4 (light chain CDR2 modified), full human IgG4 (antibody, V domains shown)
VH: B1 VH
VL: B1 VL with S52K, A53S, L54N, P56S

target: T1, α4 integrin on the surface of T cells (Homo sapiens, UniProt P13612); assay: flow cytometry on cells

Binder | binding result
B1 | binds

target: T1, α4 integrin on the surface of T cells; assay: flow cytometry on cells; remark: another data set of the same source

Binder | binding result
B2 | binds
B3 | binds
B4 | binds
B5 | binds
B6 | binds
